Data on one substance can be found in paper PMC9785345.

Experiment [1] addresses recombinant SARS-CoV-2 spike receptor-binding domain (rRBD), Wuhan-Hu-1 isolate, residues 319-541 wi (SARS-CoV-2) (UniProt P0DTC2). The experiment can be described thus: SEC. Background: In gel filtration, larger molecules generally elute earlier.
Experiment [2] shares this target. The experiment can be described thus: non-reducing SDS-PAGE.
Experiment [3] has the same target. Kind of experiment: non-reducing SDS-PAGE with western blot.

Broadly, the stoichiometry N is the number of molecules, sites or subunits per partner or assembly. With “recombinant SARS-CoV-2 spike receptor-binding domain (rRBD), Wuhan-Hu-1 isolate, residues 319-541 wi (from UniProt P0DTC2 319-541) (domain or fragment)”, the stoichiometry N in experiment [1], in experiment [2] and in experiment [3] was 2 in each case. For the same substance, the percent dimer of total rRBD (4 dpi) in experiment [3] came out at 17.9%.
